{"source": "paper PMC9224930", "about": "“VH3-53/66-Class RBD-Specific Human Monoclonal Antibody iB20 Displays Cross-Neutralizing Activity against Emerging SARS-CoV-2 Lineages” (Journal of Personalized Medicine, 2022)", "binders": {"B1": {"name": "nAb CV30 (antibody, V domains shown)", "VH": "QVQLVESGGGLIQPGGSLRLSCAASGVIVSSNYMSWVRQAPGKGLEWVSVIYSGGSTYYADSVKGRFTISRDNSKNTLYLQMNSLRAEDTAVYYCARDLDVSGGMDVWGQGTTVTVSS", "VL": "not shown", "notes": "also called recombinant CV30"}}, "biological_target": "T1, SARS-CoV-2 Wuhan-1 receptor-binding domain (RBD) (SARS-CoV-2 (Wuhan-1), UniProt P0DTC2)", "T1 construct": "also called Wuhan RBD; w.t; RBD", "assay": "BLI; pairwise competition on NTA biosensors (Octet RED96): Wuhan RBD immobilised via its 6xHis tag (200 s), first antibody added (600 s), then the second (600 s)", "settings": "both partners purified"}
{"binder": "B1", "values": [{"measurement": "binding result", "result": "binds"}]}
